Assay results published in paper PMC8866124, “Visualizing protein breathing motions associated with aromatic ring flipping” (Nature, 2022).

Biological target: the molecule itself
Assay: crystal structure; wild-type JIP1-SH3 at 20 mg/ml; crystals in 0.1 M HEPES pH 7.5, 1-5% PEG 400, 2-2.5 M ammonium sulfate, 20 °C, hanging drop; molecular replacement with PDB 2FPE chains A-B

B1: SH3 domain of the JNK-interacting protein 1 (JIP1), wild type (domain or fragment, human)
chain: GHMEQTHRAIFRFVPRHEDELELEVDDPLLVELQAEDYWYEAYNMRTGARGVFPAYYAIEVTK
notes: N-terminal extension left on the protein after cleavage by the TEV protease; Called dimeric in the legends; The wild-type structure was solved by molecular replacement with chains A-B of PDB 2FPE; also called JIP1-SH3; JIP1-SH3(WT); not shown: His6, N-terminal, cleaved
B1: binds.
